The target in one assay is IGF1R (UniProt P08069 31-932, limits assumed). Briefly: cell-based or functional assay.
Assay [1] has as its target IGF1R on the human colon carcinoma cell line Colo205 (human, UniProt P08069 31-1367). Briefly: cell-based or functional assay.

B1: 2.12.1.fx antibody (antibody, human IgG2, kappa, V domains shown)
VH: QVQLVESGGGLVKPGGSLRLSCAASGFTFSDYYMSWIRQAPGKGLEWVSYISSSGSTRDYADSVKGRFTISRDNAKNSLYLQMNSLRAEDTAVYYCVRDGVETTFYYYYYGMDVWGQGTTVTVSS
VL: DIQMTQSPSSLSASVGDRVTITCRASQDIRRDLGWYQQKPGKAPKRLIYAASRLQSGVPSRFSGSGSGTEFTLTISSLQPEDFATYYCLQHNNYPRTFGQGTKLVIKR
As to B1, the “% IGF1R downregulated” value with IGF1R is 36%; in assay [1], 48%.

For the origin of these results see patent US20130323234A1 (Pfizer, published 2013).
